The supplement of paper PMC11316812
± gives the standard deviation of the averaged measurements.

What was measured:
[1] = test system: MCF7; assay: percentage of EdU-negative (G0-arrested) nuclei per well, 72 h; higher = more G0 arrest; conditions: reference: sequence is the full UniProt precursor, the tested protein was the secreted form or ectodomain
[2] = test system: hTERT-HMEC; assay: as above; conditions: reference: sequence is the full UniProt precursor, the tested protein was the secreted form or ectodomain
[3] = protein concentration 0.0225 µM
[4] = protein concentration 0.01477 µM
[5] = protein concentration 0.03125 µM
[6] = protein concentration 0.1477 µM
[7] = protein concentration 0.3125 µM
[8] = protein concentration 0.02075 µM
[9] = protein concentration 0.2075 µM
[10] = protein concentration 0.01025 µM
[11] = protein concentration 0.1025 µM
[12] = protein concentration 0.0220325 µM
[13] = protein concentration 0.220325 µM
[14] = protein concentration 0.00839 µM
[15] = protein concentration 0.0839 µM
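Further: secreted proteins added to cultured cells, EdU pulse at the end, nuclei found by Hoechst imaging, EdU status from nuclear versus surrounding ring intensity ratio, PBS as neutral control.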

MAFRGWRPPPPPLLLLLLWVTGQAAPVAGLGSDAELQIERRFVPDECPRTVRSGDFVRYHYVGTFPDGQKFDSSYDRDSTFNVFVGKGQLITGMDQALVGMCVNERRFVKIPPKLAYGNEGVSGVIPPNSVLHFDVLLMDIWNSEDQVQIHTYFKPPSCPRTIQVSDFVRYHYNGTFLDGTLFDSSHNRMKTYDTYVGIGWLIPGMDKGLLGMCVGEKRIITIPPFLAYGEDGDGKDIPGQASLVFDVALLDLHNPKDSISIENKVVPENCERISQSGDFLRYHYNGTLLDGTLFDSSYSRNRTFDTYIGQGYVIPGMDEGLLGVCIGEKRRIVVPPHLGYGEEGRGNIPGSAVLVFDIHVIDFHNPSDSISITSHYKPPDCSVLSKKGDYLKYHYNASLLDGTLLDSTWNLGKTYNIVLGSGQVVLGMDMGLREMCVGEKRTVIIPPHLGYGEAGVDGEVPGSAVLVFDIELLELVAGLPEGYMFIWNGEVSPNLFEEIDKDGNGEVLLEEFSEYIHAQVASGKGKLAPGFDAELIVKNMFTNQDRNGDGKVTAEEFKLKDQEAKHDEL
percentage of EdU-negative [1, 3]: 29.6 ± 1.2% | percentage of EdU-negative ([1]; protein concentration 0.225 µM): 28.6 ± 3% | percentage of EdU-negative [2, 3]: 5.15 ± 0.31% | percentage of EdU-negative ([2]; protein concentration 0.225 µM): 25.4 ± 1.1%

MAFSGSQAPYLSPAVPFSGTIQGGLQDGLQITVNGTVLSSSGTRFAVNFQTGFSGNDIAFHFNPRFEDGGYVVCNTRQNGSWGPEERKTHMPFQKGMPFDLCFLVQSSDFKVMVNGILFVQYFHRVPFHRVDTISVNGSVQLSYISFQNPRTVPVQPAFSTVPFSQPVCFPPRPRGRRQKPPGVWPANPAPITQTVIHTVQSAPGQMFSTPAIPPMMYPHPAYPMPFITTILGGLYPSKSILLSGTVLPSAQRFHINLCSGNHIAFHLNPRFDENAVVRNTQIDNSWGSEERSLPRKMPFVRGQSFSVWILCEAHCLKVAVDGQHLFEYYHRLRNLPTINRLEVGGDIQLTHVQT
percentage of EdU-negative [1, 4]: 30.2 ± 1.1% | percentage of EdU-negative [1, 5]: 26.3 ± 2.5% | percentage of EdU-negative [1, 6]: 39.3 ± 0.83% | percentage of EdU-negative [1, 7]: 26.3 ± 0.4% | percentage of EdU-negative [2, 4]: 5.5 ± 0.22% | percentage of EdU-negative [2, 5]: 4.97 ± 0.35% | percentage of EdU-negative [2, 6]: 9.26 ± 0.15% | percentage of EdU-negative [2, 7]: 4.66 ± 0.35%

MAFVCLAIGCLYTFLISTTFGCTSSSDTEIKVNPPQDFEIVDPGYLGYLYLQWQPPLSLDHFKECTVEYELKYRNIGSETWKTIITKNLHYKDGFDLNKGIEAKIHTLLPWQCTNGSEVQSSWAETTYWISPQGIPETKVQDMDCVYYNWQYLLCSWKPGIGVLLDTNYNLFYWYEGLDHALQCVDYIKADGQNIGCRFPYLEASDYKDFYICVNGSSENKPIRSSYFTFQLQNIVKPLPPVYLTFTRESSCEIKLKWSIPLGPIPARCFDYEIEIREDDTTLVTATVENETYTLKTTNETRQLCFVVRSKVNIYCSDDGIWSEWSDKQCWEGEDLSKKTLLRFWLPFGFILILVIFVTGLLLRKPNTYPKMIPEFFCDT
percentage of EdU-negative [1, 8]: 26.8 ± 0.36% | percentage of EdU-negative [1, 9]: 29.3 ± 0.53% | percentage of EdU-negative [2, 8]: 4.91 ± 0.34% | percentage of EdU-negative [2, 9]: 9.86 ± 0.6%

MAGGRETCLPLIGFILICLKMVASAKSAPEIPTIDQAYSKLSNSITVEWATVPGATSYLLTAEDGDTVIETTVANSPGTVTGLKAATWYEITIRSISAAGRSQASPPKQAKTVLAAPILEVSSPSSDSILVQWEAVYMAIAFSVSIMRANGLGSIWKENTTNTSLTFTSLEAGTLYTIKAYAWNANRIPGDDSTCNQRTSPRAPANIQVSFDSGALKASFSWARAEGAFNYTVMALSDSSELTCSTTFSSCTISSLQCGTEYLISVLASNDAGSSKSSSAMTLKTVACAPGRVTIQEDPPGHLSVAWSSVDLGDYYVVFVKSDDGLEVHCNTSLTQCNFLSECGFTYFISVFVYNKAGQSPLGDIFNYTTAPCCPSDINPVLVSSDRVEIVWSPVRGAELYETKAVDGYNMVECNDTTPACTLSALECDTKYNITVYSFNEVRGSNMSCTPQFITTAPCSPEIKNVSRDAFSMINVHWRSTNDDATYTVTAQGEKGLYQCSSTGESCTMRGLPCGSVFSVTAVAETQAGRSLPSYSVPLETVPCCPTGLTVTQITQSVINVSWTIGRVAQTHVAVLESHTGQSKCHTHQNHCLLGCITCGINYTVTLKAISATGLTADCSYQSYFSGACCPLGVKLYRLGPNGIRIYWQASRGSANYSTDLYGSKGIFTCTPSAGLSFCDVTEIPCGDVYTVMVSPVAKTGLKLTFCPKKIYSVTCSGSTLGMVIYRGKRNEE [Q5VTL7]
percentage of EdU-negative [1, 10]: 25.3 ± 0.94% | percentage of EdU-negative [1, 11]: 35.5 ± 1% | percentage of EdU-negative [2, 10]: 4.97 ± 0.23% | percentage of EdU-negative [2, 11]: 35.6 ± 3.5%

MAGGRHRRVVGTLHLLLLVAALPWASRGVSPSASAWPEEKNYHQPAILNSSALRQIAEGTSISEMWQNDLQPLLIERYPGSPGSYAARQHIMQRIQRLQADWVLEIDTFLSQTPYGYRSFSNIISTLNPTAKRHLVLACHYDSKYFSHWNNRVFVGATDSAVPCAMMLELARALDKKLLSLKTVSDSKPDLSLQLIFFDGEEAFLHWSPQDSLYGSRHLAAKMASTPHPPGARGTSQLHGMDLLVLLDLIGAPNPTFPNFFPNSARWFERLQAIEHELHELGLLKDHSLEGRYFQNYSYGGVIQDDHIPFLRRGVPVLHLIPSPFPEVWHTMDDNEENLDESTIDNLNKILQVFVLEYLHL
percentage of EdU-negative [1, 3]: 25.8 ± 0.78% | percentage of EdU-negative ([1]; protein concentration 0.225 µM): 29.91 ± 0.092% | percentage of EdU-negative [2, 3]: 5.21 ± 0.26% | percentage of EdU-negative ([2]; protein concentration 0.225 µM): 4.97 ± 1.1%

MAGLMTIVTSLLFLGVCAHHIIPTGSVVIPSPCCMFFVSKRIPENRVVSYQLSSRSTCLKAGVIFTTKKGQQFCGDPKQEWVQRYMKNLDAKQKKASPRARAVAVKGPVQRYPGNQTTC
percentage of EdU-negative [1, 12]: 23.9 ± 1.6% | percentage of EdU-negative [1, 13]: 24.7 ± 0.47% | percentage of EdU-negative [2, 12]: 4.96 ± 0.78% | percentage of EdU-negative [2, 13]: 5.694 ± 0.035%

MAGLTAAAPRPGVLLLLLSILHPSRPGGVPGAIPGGVPGGVFYPGAGLGALGGGALGPGGKPLKPVPGGLAGAGLGAGLGAFPAVTFPGALVPGGVADAAAAYKAAKAGAGLGGVPGVGGLGVSAGAVVPQPGAGVKPGKVPGVGLPGVYPGGVLPGARFPGVGVLPGVPTGAGVKPKAPGVGGAFAGIPGVGPFGGPQPGVPLGYPIKAPKLPGGYGLPYTTGKLPYGYGPGGVAGAAGKAGYPTGTGVGPQAAAAAAAKAAAKFGAGAAGVLPGVGGAGVPGVPGAIPGIGGIAGVGTPAAAAAAAAAAKAAKYGAAAGLVPGGPGFGPGVVGVPGAGVPGVGVPGAGIPVVPGAGIPGAAVPGVVSPEAAAKAAAKAAKYGARPGVGVGGIPTYGVGAGGFPGFGVGVGGIPGVAGVPGVGGVPGVGGVPGVGISPEAQAAAAAKAAKYGAAGAGVLGGLVPGAPGAVPGVPGTGGVPGVGTPAAAAAKAAAKAAQFGLVPGVGVAPGVGVAPGVGVAPGVGLAPGVGVAPGVGVAPGVGVAPGIGPGGVAAAAKSAAKVAAKAQLRAAAGLGAGIPGLGVGVGVPGLGVGAGVPGLGVGAGVPGFGAGADEGVRRSLSPELREGDPSSSQHLPSTPSSPRVPGALAAAKAAKYGAAVPGVLGGLGALGGVGIPGGVVGAGPAAAAAAAKAAAKAAQFGLVGAAGLGGLGVGGLGVPGVGGLGGIPPAAAAKAAKYGAAGLGGVLGGAGQFPLGGVAARPGFGLSPIFPGGACLGKACGRKRK [F8WAH6]
percentage of EdU-negative [1, 14]: 26.3 ± 0.31% | percentage of EdU-negative [1, 15]: 25.1 ± 0.57% | percentage of EdU-negative [2, 14]: 4.54 ± 0.69% | percentage of EdU-negative [2, 15]: 6.95 ± 0.57%
